Experimental findings from patent publication US6342394 are described below.

This test concerns the target human steroid 21-hydroxylase (21-OH), 125I-labelled (human) (UniProt P08686). Put plainly: 125I-21-OH + protein A; competitor: autoantibodies in pooled patient sera; irrelevant control Fab.
Chain of UniProt P08686 (P08686 whole entry): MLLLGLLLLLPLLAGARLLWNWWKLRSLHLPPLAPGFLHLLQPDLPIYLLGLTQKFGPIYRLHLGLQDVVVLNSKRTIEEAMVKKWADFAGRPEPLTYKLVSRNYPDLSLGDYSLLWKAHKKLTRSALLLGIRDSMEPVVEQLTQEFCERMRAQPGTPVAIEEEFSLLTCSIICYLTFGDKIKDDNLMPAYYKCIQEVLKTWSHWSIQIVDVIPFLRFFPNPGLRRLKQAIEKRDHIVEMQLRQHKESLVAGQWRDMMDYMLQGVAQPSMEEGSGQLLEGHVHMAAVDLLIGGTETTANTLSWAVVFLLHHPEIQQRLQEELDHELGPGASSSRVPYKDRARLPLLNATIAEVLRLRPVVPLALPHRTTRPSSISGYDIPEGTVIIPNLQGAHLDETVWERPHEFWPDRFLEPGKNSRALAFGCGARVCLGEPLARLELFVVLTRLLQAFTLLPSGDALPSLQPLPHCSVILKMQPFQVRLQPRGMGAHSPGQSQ

For the substance “control Fab from a TSH receptor (TSHR) mouse monoclonal antibody”, the % inhibition of 125I-21-hydroxylase binding is below 15%.
